Results on two compounds are retold here after article PMC7450098, “The maturase HydF enables [FeFe] hydrogenase assembly via transient, cofactor-dependent interactions” (The Journal of Biological Chemistry, 2020).

Where “and” joins values, the source holds several entries; their conditions need not be identical. Equal values may be shown once.

One experiment deals with T1, HydA1 (CrHydA1) (Chlamydomonas reinhardtii, UniProt Q9FYU1).
T1 construct: gene hyd1; His-tagged, purified recombinant; theoretical mass 49 kDa; monomer; apo-form reconstituted to [4Fe-4S]-HydA1
T1 sequence (Q9FYU1 56-497): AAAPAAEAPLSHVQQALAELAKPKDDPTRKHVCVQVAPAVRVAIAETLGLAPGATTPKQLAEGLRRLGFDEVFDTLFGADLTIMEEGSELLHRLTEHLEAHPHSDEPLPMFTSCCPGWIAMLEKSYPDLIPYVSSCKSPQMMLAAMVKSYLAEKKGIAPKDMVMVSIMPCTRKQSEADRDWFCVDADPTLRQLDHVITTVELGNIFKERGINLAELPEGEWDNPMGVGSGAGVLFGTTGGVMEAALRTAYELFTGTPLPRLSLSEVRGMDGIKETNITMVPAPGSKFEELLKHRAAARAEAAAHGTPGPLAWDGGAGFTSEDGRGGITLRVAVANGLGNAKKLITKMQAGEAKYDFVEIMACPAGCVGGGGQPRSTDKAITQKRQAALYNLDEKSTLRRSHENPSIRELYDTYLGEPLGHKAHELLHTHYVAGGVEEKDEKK
Briefly: in vitro reconstitution; spectroscopy; GEMMA. The experiment is classed as binding. The conditions noted are these: anaerobic reconstitution of apo-protein.

In another experiment the target is T2, HydF (TmHydF) (Thermotoga maritima, UniProt Q9WYS6).
T2 construct: gene TM_0445; full length, expressed in E. coli Rosetta (II), heat step and phenyl-Sepharose; about 45 kDa; mainly dimer, some tetramer; apo-form reconstituted with [4Fe-4S]
T2 sequence (Q9WYS6 1-404): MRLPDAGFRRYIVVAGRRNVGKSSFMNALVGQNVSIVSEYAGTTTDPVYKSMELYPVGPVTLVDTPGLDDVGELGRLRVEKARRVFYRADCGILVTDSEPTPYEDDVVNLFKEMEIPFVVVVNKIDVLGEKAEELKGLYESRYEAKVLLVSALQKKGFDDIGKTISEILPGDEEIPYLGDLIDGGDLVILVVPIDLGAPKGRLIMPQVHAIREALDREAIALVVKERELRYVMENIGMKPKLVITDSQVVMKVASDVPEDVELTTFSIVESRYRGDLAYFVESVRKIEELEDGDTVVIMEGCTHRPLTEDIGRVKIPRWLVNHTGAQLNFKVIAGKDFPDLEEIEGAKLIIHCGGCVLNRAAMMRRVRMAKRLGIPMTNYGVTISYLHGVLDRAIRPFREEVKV
Briefly: in vitro reconstitution; spectroscopy; GEMMA. To be noted: anaerobic reconstitution of apo-protein. It counts as binding.

For experiment [1], the target named is HydF from Thermotoga maritima (Thermotoga maritima). Briefly: GEMMA (gas-phase electrophoretic macromolecule analysis); mixtures of metal-loaded HydF ([4Fe-4S]-HydF or holo-HydF) with HydA1 (apo, [4Fe4S] or holo); 0.02 µg/µl each protein in 20 mM ammonium acetate, 0.005% Tween-20.
Experiment [2] deals with HydA1 [FeFe] hydrogenase from Chlamydomonas reinhardtii (Chlamydomonas reinhardtii). The experiment is described as above.
For experiment [3], the target named is HydF from Thermotoga maritima (Thermotoga maritima). In words: GEMMA (gas-phase electrophoretic macromolecule analysis); isolated HydF or HydA1, each as apo, [4Fe4S] and holo form; 0.02 µg/µl protein in 20 mM ammonium acetate, 0.005% Tween-20.
Experiment [4] shares this target. Briefly: GEMMA (gas-phase electrophoretic macromolecule analysis); mixtures of metal-free apo-HydF with HydA1 (apo, [4Fe4S] or holo); 0.02 µg/µl each protein in 20 mM ammonium acetate, 0.005% Tween-20.
The target is the same in experiment [5]. In words: SEC + other: GEMMA (gas-phase electrophoretic macromolecule analysis); fraction P1 (63 ml) of apo-HydF from Superdex-200 (50 mM Tris-HCl pH 8.0, 150 mM NaCl), then wide-scan GEMMA at 0.02 µg/µl protein in 20 mM ammonium acetate, 0.005% Tween 20; 1 mM DTT added to samples.
The target is the same in experiment [6]. In words: SEC + other: GEMMA (gas-phase electrophoretic macromolecule analysis); fractions P2 of apo-HydF (70 ml) and apo-HydA1 (75 ml) from Superdex-200 (50 mM Tris-HCl pH 8.0, 150 mM NaCl), then wide-scan GEMMA at 0.02 µg/µl protein in 20 mM ammonium acetate, 0.005% Tween 20; 1 mM DTT added to samples.

On to `[S]12[Fe]3[S]4[Fe]1[S]1[Fe]2[S]3[Fe]41` [[4Fe-4S] cluster], for which the “in vitro reconstitution; spectroscopy; GEMMA” value was “The [4Fe4S] clusters in apo-HydA1, apo-HydF, and the truncated HydF apo-proteins were reconstituted” on HydA1 (CrHydA1); “The [4Fe4S] clusters in apo-HydA1, apo-HydF, and the truncated HydF apo-proteins were reconstituted” on HydF (TmHydF).
With “HydF from Thermotoga maritima (natural protein)”, the stoichiometry N is 2 and 4 in experiment [1]; 2 and 4 and > 6 in experiment [3]; 2 and 4 in experiment [4]; 4 and 2 and 6 in experiment [5]; 2 in experiment [6]. Besides, in experiment [2], the stoichiometry N (HydF per HydA1) came out at 2.

The term stoichiometry N denotes the number of molecules, sites or subunits per partner or assembly.
